Experimental data: article PMC9861681, “Preparation, Purification and Characterization of Antibacterial and ACE Inhibitory Peptides from Head Protein Hydrolysate of Kuruma Shrimp, Marsupenaeus japonicus” (Molecules, 2023)

How the values were obtained:
[1] = target: T1, angiotensin I-converting enzyme (ACE, EC 3.4.15.1) from rabbit lung (rabbit, UniProt P12822 34-1310); experiment: cell-based or functional assay
T1 sequence (looked up): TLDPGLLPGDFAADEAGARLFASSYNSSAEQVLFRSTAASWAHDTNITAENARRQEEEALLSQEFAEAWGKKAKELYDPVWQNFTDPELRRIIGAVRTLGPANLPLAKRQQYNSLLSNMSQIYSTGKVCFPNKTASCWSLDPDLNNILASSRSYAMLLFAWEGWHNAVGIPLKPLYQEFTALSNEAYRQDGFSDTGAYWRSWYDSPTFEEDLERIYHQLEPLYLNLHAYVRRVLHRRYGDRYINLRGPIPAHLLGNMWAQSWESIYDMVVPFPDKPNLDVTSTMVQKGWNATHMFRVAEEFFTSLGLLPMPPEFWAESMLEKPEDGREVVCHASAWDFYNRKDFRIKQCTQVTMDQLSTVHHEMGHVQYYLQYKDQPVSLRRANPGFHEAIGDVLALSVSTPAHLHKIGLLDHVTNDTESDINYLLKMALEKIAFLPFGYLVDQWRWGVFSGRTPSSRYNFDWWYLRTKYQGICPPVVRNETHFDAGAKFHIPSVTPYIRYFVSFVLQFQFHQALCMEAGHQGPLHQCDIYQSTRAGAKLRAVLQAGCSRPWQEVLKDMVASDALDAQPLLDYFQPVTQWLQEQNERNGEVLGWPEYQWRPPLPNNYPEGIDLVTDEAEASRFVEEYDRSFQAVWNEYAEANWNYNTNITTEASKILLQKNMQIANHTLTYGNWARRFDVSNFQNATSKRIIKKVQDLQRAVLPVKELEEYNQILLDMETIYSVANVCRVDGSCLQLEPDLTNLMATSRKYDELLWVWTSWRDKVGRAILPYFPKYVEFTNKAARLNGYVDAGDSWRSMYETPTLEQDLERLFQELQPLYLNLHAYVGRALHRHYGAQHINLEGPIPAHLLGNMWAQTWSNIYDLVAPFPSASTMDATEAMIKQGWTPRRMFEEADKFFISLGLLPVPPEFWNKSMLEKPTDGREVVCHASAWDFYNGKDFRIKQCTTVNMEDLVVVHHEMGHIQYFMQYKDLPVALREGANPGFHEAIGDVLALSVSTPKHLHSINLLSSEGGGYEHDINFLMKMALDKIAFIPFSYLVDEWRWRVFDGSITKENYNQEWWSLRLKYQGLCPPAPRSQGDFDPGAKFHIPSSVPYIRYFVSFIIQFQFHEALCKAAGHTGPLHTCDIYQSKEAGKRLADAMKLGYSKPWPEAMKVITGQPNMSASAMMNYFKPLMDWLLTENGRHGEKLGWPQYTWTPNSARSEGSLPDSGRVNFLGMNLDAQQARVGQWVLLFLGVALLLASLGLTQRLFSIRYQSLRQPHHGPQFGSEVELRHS

[2] = target: T1, angiotensin I-converting enzyme (ACE, …); experiment: cell-based or functional assay; remark: listed apart in the source

IC50 of ACE inhibitory activity (HHL substrate, hippuric acid at 228 nM) [1]: 45 µg/mL
IC50 of ACE inhibitory activity, calculated from the molecular mass of ARL/I and Table 2 [2]: 126 µM
B1: ACE inhibitory peptide Ala-Arg-Leu/Ile (ARL/I) (peptide)
chain: ARL
